Measurements from paper PMC9249340 (FEBS Open Bio, 2022).
Changes are numbered by the printed parent chain. Names and notes keep the numbering of the source.

B1: GDAP1Δ295‐358 wild type (domain or fragment, human, UniProt Q8TB36 1-294, looked up)
chain: MAERQEEQRGSPPLRAEGKADAEVKLILYHWTHSFSSQKVRLVIAEKALKCEEHDVSLPLSEHNEPWFMRLNSTGEVPVLIHGENIICEATQIIDYLEQTFLDERTPRLMPDKESMYYPRVQHYRELLDSLPMDAYTHGCILHPELTVDSMIPAYATTRIRSQIGNTESELKKLAEENPDLQEAYIAKQKRLKSKLLDHDNVKYLKKILDELEKVLDQVETELQRRNEETPEEGQQPWLCGESFTLADVSLAVTLHRLKFLGFARRNWGNGKRPNLETYYERVLKRKTFNKVLG
notes: GDAP1, human; printed as GDAP1Δ295-358 (residues 295-358 deleted); also called wtGDAP1Δ295‐358; GDAPΔ295‐358; source: E. coli BL21(DE3), purified (Ni-NTA, TEV cleavage, second Ni-NTA, SEC on Superdex 200); not shown: His6, N-terminal, cleaved
B2: GDAP1Δ303‐358 R120W (domain or fragment, human, UniProt Q8TB36 1-302, looked up)
chain: MAERQEEQRGSPPLRAEGKADAEVKLILYHWTHSFSSQKVRLVIAEKALKCEEHDVSLPLSEHNEPWFMRLNSTGEVPVLIHGENIICEATQIIDYLEQTFLDERTPRLMPDKESMYYPWVQHYRELLDSLPMDAYTHGCILHPELTVDSMIPAYATTRIRSQIGNTESELKKLAEENPDLQEAYIAKQKRLKSKLLDHDNVKYLKKILDELEKVLDQVETELQRRNEETPEEGQQPWLCGESFTLADVSLAVTLHRLKFLGFARRNWGNGKRPNLETYYERVLKRKTFNKVLGHVNNILIS
notes: GDAP1, human; printed as GDAP1Δ303-358 (residues 303-358 deleted) with the CMT2K-linked mutation R120W; Disease mutation that occurs in patients; also called R120W GDAP1; GDAP1∆303‐358 R120W; source: E. coli BL21(DE3), purified (Ni-NTA, TEV cleavage, second Ni-NTA, SEC); not shown: His6, N-terminal, cleaved
B3: GDAP1Δ303‐358 H123R (domain or fragment, human, UniProt Q8TB36 1-302, looked up)
chain: B2 chain with W120R, H123R
notes: GDAP1, human; printed as GDAP1Δ303-358 (residues 303-358 deleted) with the Finnish founder CMT2K mutation H123R; Disease mutation that occurs in patients; also called H123R GDAP1; GDAP1∆303‐358 H123R; source: E. coli BL21(DE3), purified (Ni-NTA, TEV cleavage, second Ni-NTA, SEC); not shown: His6, N-terminal, cleaved

Legend:
[1] = target: the molecule itself; test: crystal structure; wild-type GDAP1Δ295-358, new crystal form, +8 °C, 200 mM NH4 formate, 25% PEG3350, 8.64 mg/mL protein
[2] = target: the molecule itself; test: SEC-SAXS; 50 µL at 8.5-10 mg/mL on a BioSEC3-300 column, 25 mM HEPES pH 7.5, 300 mM NaCl, +15 °C; monomer to dimer

Protein | binding result [1] | stoichiometry N [2]
B1 | binds | 
B2 |  | 2
B3 |  | 2
